T1: human RANTES (human, UniProt P13501 24-91)
T1 construct: also called hRANTES
T1 sequence (looked up): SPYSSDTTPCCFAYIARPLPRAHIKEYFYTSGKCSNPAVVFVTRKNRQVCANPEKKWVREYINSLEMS

T2: recombinant human MCP-2 (human, UniProt P80075 24-99)
T2 construct: also called rhMCP-2
T2 sequence (looked up): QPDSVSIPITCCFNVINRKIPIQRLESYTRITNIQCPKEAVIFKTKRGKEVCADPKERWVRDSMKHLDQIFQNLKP

T3: human GRO/MGSA (human, UniProt P09341 35-107)
T3 construct: also called hGRO/MGSA; GRO-alpha
T3 sequence (looked up): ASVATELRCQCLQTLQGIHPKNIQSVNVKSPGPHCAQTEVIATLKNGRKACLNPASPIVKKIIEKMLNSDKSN

T4: human MIP-1-alpha (human, UniProt P10147 24-92, limits assumed)
T4 construct: also called hMIP-1-alpha
T4 sequence (looked up): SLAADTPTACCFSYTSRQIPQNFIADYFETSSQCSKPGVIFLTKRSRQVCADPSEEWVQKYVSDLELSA


How the values were obtained:
[1] = target: T5, human monocyte chemo-attractant protein-1 (MCP-1) (human, UniProt P13500 24-99); assay: ELISA, hybridoma supernatant on coated MCP-1
T5 construct: 76-residue recombinant protein from E. coli, bought (PeproTech); also called hMCP-1(MCAF); human MCP-1

[2] = target: T5, human monocyte chemo-attractant …; assay: cell-based or functional assay
recombinant human MCP-3 = target: T6, recombinant human MCP-3 (human, UniProt P80098 24-99); assay: ELISA, coated antigen
T6 construct: also called rhMCP-3
Method in brief: (§1)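 Plates coated overnight at 4° C with MCP-1, MCP-2, MCP-3, MCP-4, RANTES, GRO-alpha, MIP-1 alpha, eotaxin, rat MCP-1 or mouse JE (2 μg/ml, carbonate buffer pH 9.6), blocked with BSA. Hybridoma supernatants bound 2 hours at room temperature; TMB colour developed about 10 minutes.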

human RANTES = target: T1, human RANTES; assay: ELISA, coated antigen
Method in brief: as §1

recombinant human MCP-4 = target: T7, recombinant human MCP-4 (human, UniProt Q99616 24-98, limits assumed); assay: ELISA, coated antigen
T7 construct: also called rhMCP-4
Method in brief: as §1

recombinant human MCP-2 = target: T2, recombinant human MCP-2; assay: ELISA, coated antigen
Method in brief: as §1

human eotaxin = target: T8, human eotaxin (human, UniProt P51671 24-97); assay: ELISA, coated antigen
T8 construct: also called hEotaxin
Method in brief: as §1

human GRO/MGSA = target: T3, human GRO/MGSA; assay: ELISA, coated antigen
Method in brief: as §1

rat MCP-1 = rat MCP-1 (rat, UniProt P14844 24-148); assay: ELISA, coated antigen
Method in brief: as §1

[3] = target: T9, recombinant mouse JE/MCP-1 (mouse, UniProt P10148 24-148); assay: ELISA, coated antigen
T9 construct: also called rmJE/MCP-1
Method in brief: as §1

[4] = target: T5, human monocyte chemo-attractant …; assay: ELISA, coated antigen
Method in brief: as §1

human MIP-1-alpha = target: T4, human MIP-1-alpha; assay: ELISA, coated antigen
Method in brief: as §1

rat MCP-1, sequence (P14844 24-148 limits assumed): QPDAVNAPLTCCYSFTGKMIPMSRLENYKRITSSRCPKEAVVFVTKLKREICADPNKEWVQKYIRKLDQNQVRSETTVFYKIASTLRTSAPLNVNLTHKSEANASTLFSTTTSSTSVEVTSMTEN
T9 sequence (P10148 24-148 limits assumed): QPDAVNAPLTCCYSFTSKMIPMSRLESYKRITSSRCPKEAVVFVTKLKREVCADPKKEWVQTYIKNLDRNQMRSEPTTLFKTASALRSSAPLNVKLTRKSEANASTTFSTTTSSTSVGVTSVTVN
T8 sequence (P51671 24-97 limits assumed): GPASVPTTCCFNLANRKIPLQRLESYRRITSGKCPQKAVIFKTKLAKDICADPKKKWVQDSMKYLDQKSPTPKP
T7 sequence (Q99616 24-98 limits assumed): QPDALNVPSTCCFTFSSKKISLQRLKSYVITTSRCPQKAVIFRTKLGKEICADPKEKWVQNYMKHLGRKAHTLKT
T5 sequence (P13500 24-99): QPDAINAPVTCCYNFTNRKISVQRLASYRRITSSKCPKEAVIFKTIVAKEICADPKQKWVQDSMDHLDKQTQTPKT
T6 sequence (P80098 24-99 limits assumed): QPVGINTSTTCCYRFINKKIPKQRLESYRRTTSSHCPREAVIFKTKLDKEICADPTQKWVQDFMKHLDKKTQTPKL

| Binder | ELISA OD-MCP-1 [1] | IC50 Ca++ Flux [2] | IC50 Chemotaxis [2] | ELISA OD (recombinant human MCP-3) | ELISA OD (human RANTES) | ELISA OD (recombinant human MCP-4) | ELISA OD (recombinant human MCP-2) | ELISA OD (human eotaxin) | ELISA OD (human GRO/MGSA) | ELISA OD (rat MCP-1) | ELISA OD [3] | ELISA OD [4] | ELISA OD (human MIP-1-alpha) |
| --- | --- | --- | --- | --- | --- | --- | --- | --- | --- | --- | --- | --- | --- |
| anti-MCP-1 mAb 1.4.1 (antibody, V domains shown) VH: QSGPGLVKPSQTLSLTCAISGDSVSSNSAAWNWIRQSPSRGLEWLGRTYYRSKWYSDHAVSVRSRITIYPDTSKNQFSLQLNSVTPEDTAVYYCARDRISGTYVGMDVWGQGTTVTVSS VL: DIGMTQTPLSLSVTPGQPASISCKSSQSLLYSDGKTYLYWYLQKPGQPPQHLIYEVSNRFSGVPDRFSGSGSGTDFTLKISRVEADDVGVYYCMQTIHLPLTFGGGTKVEIQR | 4 OD450 | 0.11 µg/mL | 0.51 µg/mL | 0.049 OD450 | 0.046 OD450 | 0.045 OD450 | 0.046 OD450 | 0.043 OD450 | 0.044 OD450 | 0.05 OD450 | 0.042 OD450 | 0.738 OD450 | 0.041 OD450 |
| anti-MCP-1 mAb 3.16.1 (antibody, V domains shown) VH: QVQLVQSGAEVKKPGASVKVSCKVSGYTLTDLSMHWVRQAPGKGLEWMGGFDPEDGETIYAQKFQGRVTMTEDTSSDTAYMELSSLRSEDTAVYYCATHEFWSGYFDYWGQGTLVTVSS VL: DIVMTQSPDSLAVSLGERATINCKSSQSVLFSSNNKSYLTWYQQKPGQPPKLLIFWASIRESGVPDRISGSGSGTDLTLTISSLQAEDAAVYYCQQYYSSPWTFGQGTKVEIKR | 3.92 OD450 | 0.16 µg/mL | 0.4 µg/mL | 0.043 OD450 | 0.042 OD450 | 0.043 OD450 | 0.049 OD450 | 0.043 OD450 | 0.043 OD450 | 0.046 OD450 | 0.042 OD450 | 0.633 OD450 | 0.043 OD450 |
| anti-MCP-1 mAb 4.7.1 (antibody, V domains shown) VH: QVQLVQSGAEVKKPGASVKVSCKVSGYTLTELSMHWVRQAPGKGLEWMGGFDPEDGETIYAQKFQGRVTMTEDTSTDTAYMELSSLRSEDTAVYYCATDDFWSGYFDYWGQGTLVTVSS VL: not shown | 3.84 OD450 | 0.39 µg/mL | 0.45 µg/mL | 0.046 OD450 | 0.046 OD450 | 0.044 OD450 | 0.042 OD450 | 0.042 OD450 | 0.046 OD450 | 0.062 OD450 | 0.042 OD450 | 0.744 OD450 | 0.046 OD450 |
| anti-MCP-1 mAb 4.5.1 (antibody, V domains shown) VH: QVQLVQSGAEVKKPGASVKVSCKVSGYTLTELSMHWVRQAPGKGLEWMGGFDPEDGETIYAQKFQGRVTMTEDTSTDTAYMELSSLRSEDTAVYYCATDDFWSGYFDYWGQGTLVTVSS VL: not shown | 3.38 OD450 | 0.27 µg/mL | 0.75 µg/mL | 0.046 OD450 | 0.049 OD450 | 0.046 OD450 | 0.042 OD450 | 0.041 OD450 | 0.045 OD450 | 0.055 OD450 | 0.049 OD450 | 0.957 OD450 | 0.046 OD450 |
| anti-MCP-1 mAb 4.6.1 (antibody, V domains shown) VH: QVQLVQSGAEVKKPGASVKVSCKVSGYTLTELSMHWVRQAPGKGLEWMGGFDPEDGETIYAQKFQGRVTMTEDTSTDTAYMELSSLRSEDTAVYYCATDDFWSGYFDYWGQGTLVTVSS VL: not shown | 3.51 OD450 | 0.31 µg/mL | 0.4 µg/mL | 0.05 OD450 | 0.053 OD450 | 0.047 OD450 | 0.047 OD450 | 0.049 OD450 | 0.046 OD450 | 0.05 OD450 | 0.049 OD450 | 0.686 OD450 | 0.055 OD450 |
| anti-MCP-1 mAb 4.8.1 (antibody, V domains shown) VH: QVQLVQSGAEVKKPGASVKVSCKVSGYTLTELSMHWVRQAPGKGLEWMGGFDPEDGETIYAQKFQGRVTMTEDTSTDTAYMELSSLRTEDTAVYYCTTDDFWSGYFDYWGQGTLVTVSS VL: not shown | 4 OD450 | 0.22 µg/mL | 0.29 µg/mL | 0.043 OD450 | 0.044 OD450 | 0.039 OD450 | 0.041 OD450 | 0.043 OD450 | 0.042 OD450 | 0.091 OD450 | 0.042 OD450 | 1.14 OD450 | 0.041 OD450 |
| anti-MCP-1 mAb 3.15.1 (antibody, human IgG4, kappa, V domains shown) VH: QVQLVQSGAEVKKPGASVQVSCKVSGDTLTELSMHWVRQAPGKGLEWMGGFDPEDGETIYARKFQGRVTMTEDTSTDTVYMELSSLRSEDTAVYFCATDSRGYSGYFDNWGQGTLVTVSS VL: not shown | 4 OD450 | 0.12 µg/mL | 0.89 µg/mL | 0.046 OD450 | 0.049 OD450 | 0.051 OD450 | 0.043 OD450 | 0.045 OD450 | 0.044 OD450 | 0.05 OD450 | 0.041 OD450 | 0.948 OD450 | 0.045 OD450 |
| anti-MCP-1 mAb 5.1 (antibody, V domains shown) VH: EQSGGGVVQPGRSLRLSCAASGFTFSSYGMHWVRQAPGKGLEWVAVIWYDGNNKYYADSVKGRFTISRDTSKNTLYLQMNSLRAEDTAVYYCARDSSSYYYYGMDVWGQGTTVTVSS VL: NFMLTQPHSVSESPGKTVTISCTRSSGSIASNYVQWFQQRPGSSPTTVIYEDDQRPSGVPDRFCGSIDSSSNSASLTISGLRTEDEADYYCQSYDSSNHVVFGGGTKLTVLG | 4 OD450 | 3.5 µg/mL | 1.3 µg/mL | 0.05 OD450 | 0.043 OD450 | 0.043 OD450 | 0.051 OD450 | 0.042 OD450 | 0.044 OD450 | 0.054 OD450 | 0.044 OD450 | 0.521 OD450 | 0.043 OD450 |

Source: US20050058639A1 (AstraZeneca / MedImmune, published 2005)
